US20100129346A1 (G2 INFLAMMATION, published 2010)
No end group written: not given here. *: point of attachment. Biotin = O=C1N[C@H]2[C@H](CS[C@H]2CCCCC(=O)*)N1

T1: Biotinylated Human C5aR Peptide (2nd loop), peptide 23 (human, N-terminal biotin)
T1 construct: immobilised on a streptavidin sensor chip for BIACore; also called Biotinylated-Peptide 23; Biot-peptide
T1 peptide: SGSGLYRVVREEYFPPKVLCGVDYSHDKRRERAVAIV

T2: human C5aR (human, UniProt P21730 1-350)
T2 construct: On human neutrophils, on hC5aR-transfected L1.2 cells or on neutrophils of hC5aR knock-in mice; also called hC5aR; C5a receptor
T2 chain: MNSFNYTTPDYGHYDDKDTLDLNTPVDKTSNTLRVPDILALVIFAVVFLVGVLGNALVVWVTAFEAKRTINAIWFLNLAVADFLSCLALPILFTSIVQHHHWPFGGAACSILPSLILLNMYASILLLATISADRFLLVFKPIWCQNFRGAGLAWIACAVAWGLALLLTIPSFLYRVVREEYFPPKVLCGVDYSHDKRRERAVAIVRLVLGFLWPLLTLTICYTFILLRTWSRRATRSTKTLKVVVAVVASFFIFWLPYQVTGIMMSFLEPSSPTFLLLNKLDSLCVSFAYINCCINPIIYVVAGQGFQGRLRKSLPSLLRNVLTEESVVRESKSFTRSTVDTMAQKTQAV

T3: 12-mer peptide VREEYFPPKVLC of the human C5aR second extracellular loop (human)
T3 construct: Parent peptide of the alanine scan; each mutant has one residue replaced by alanine
T3 peptide: Biotin-GSGSVREEYFPPKVLC


What was measured:
[1] = target: T1, Biotinylated Human C5aR Peptide (2nd …); assay: SPR (BIACore 2000), biotinylated peptide 23 on SA chip, mAb as analyte
human C5aR [2] = target: T2, human C5aR; assay: competitive 125I-C5a ligand binding to hC5aR on human neutrophils; blocked ligand human C5a; 3 experiments; the table's column has no unit, nM is that of the axis Log Conc (nM)
Experimental: (§1) Human neutrophils were washed and re-suspended in binding buffer (50 mM HEPES, pH7.5, 1 mM CaCl2, 5 mM MgCl2, and 0.5% BSA) at 1×10⁷/ml. For each binding reaction (in a final volume of 120 μl), 40 μl cell suspension (4×10⁵ cells) with an appropriate amount of anti-hC5aR mAb, isotype matched control mAb or unlabelled human C5a (SIGMA) was incubated at room temperature for 15 min. ¹²⁵I-labelled human C5a (Perkin Elmer) was added at a final concentration of 0.4 nM and the reactions were incubated at room temperature for 60 min. Cells were then collected and washed 3 times with binding buffer containing 150 mM NaCl. Cells were then transferred to Opti plates (Perkin Elmer) with MicroScint 20 scintillation fluid and radioactivity counted on TopCount (Packard). Each sample was assayed in triplicate.
(§2) Further competitive ligand binding studies were conducted to measure ¹²⁵I-C5a displacement from hC5aR on hC5aR-transfected L1.2 cells with 7F3 or 3C5.

[3] = target: T3, 12-mer peptide VREEYFPPKVLC of the …; assay: peptide ELISA, biotinylated peptide on streptavidin-coated plates [b]
Experimental: Streptavidin-coated microtiter plates (NUNC) were coated with 10 μg/ml of peptide/well in a volume of 200 μl, and incubated at 4° C. overnight. Plates were washed three times with ELISA wash buffer (0.05% Tween 20 in PBS). MAbs were added at 2.5 μg/ml, and plates were incubated for 3 hrs at room temperature. HRP-conjugated rabbit anti-mouse IgG antibody diluted 1:1000 in ELISA wash buffer was used for detection. Plates were developed using TMB (3,3′,5,5′ tetramethyl benzidine, SIGMA) and read at […].

[4] = target: T1, Biotinylated Human C5aR Peptide (2nd …); assay: SPR (BIACore), biotinylated peptide 23 on SA chip; experiment 2 (100 nM-0.78 nM, 20 min dissociation)
Experimental: (§3) Additional BIACore analyses were performed to compare binding affinities of antibodies 7F3 and 3C5 to peptide 23 under varying conditions. The conditions for these additional BIAcore experiments were as described above under “Experimental Details” with the following modifications: [0295] Experiment 2: Antibody concentrations included in kinetic analysis—100 nM-0.78 nM; 20 min dissociation. [0296] Experiment 3: Antibody concentrations included in kinetic analysis—7F3: 25 nM-0.78 nM,; 3C5: 6.25nM-0.78nM; 5 min dissociation. [0297] Experiment 4: Antibody concentrations included in kinetic analysis—7F3: 25 nM-1.56 nM,; 3C5: 6.25 nM-0.4 nM; 1 min association, 3 min dissociation.

[5] = target: T1, Biotinylated Human C5aR Peptide (2nd …); assay: SPR (BIACore), biotinylated peptide 23 on SA chip; experiment 3 (25 nM-0.78 nM, 5 min dissociation)
human C5aR [6] = target: T2, human C5aR; assay: competition with 125I-C5a (0.4 nM) for binding to human neutrophils
human C5aR [7] = target: T2, human C5aR; assay: displacement of 125I-C5a from hC5aR on hC5aR-transfected L1.2 cells
[8] = target: T1, Biotinylated Human C5aR Peptide (2nd …); assay: SPR (BIACore), biotinylated peptide 23 on SA chip; experiment 4 (25 nM-1.56 nM, 1 min association, 3 min dissociation)
[9] = target: T1, Biotinylated Human C5aR Peptide (2nd …); assay: SPR (BIACore), biotinylated peptide 23 on SA chip; experiment 1
human C5aR [10] = target: T2, human C5aR; assay: displacement of 125I-C5a from hC5aR on hC5aR-transfected L1.2 cells; hC5aR-transfected L1.2 cells
human C5aR [11] = target: T2, human C5aR; assay: competition with 125I-C5a (0.4 nM) for binding to human neutrophils; human neutrophils
Experimental: as §1, §2

[12] = target: T1, Biotinylated Human C5aR Peptide (2nd …); assay: SPR (BIACore), biotinylated peptide 23 on SA chip; reference 7F3
[13] = target: T1, Biotinylated Human C5aR Peptide (2nd …); assay: SPR (BIACore), biotinylated peptide 23 on SA chip; experiment 4 (6.25 nM-0.4 nM, 1 min association, 3 min dissociation)
Experimental: as §3

[14] = target: T1, Biotinylated Human C5aR Peptide (2nd …); assay: SPR (BIACore), biotinylated peptide 23 on SA chip; experiment 3 (6.25 nM-0.78 nM, 5 min dissociation)
Experimental: as §3

Row | Binder | Ka [1] [M⁻¹] | Kd [1] [nM] | koff [1] [s⁻¹] | kon [1] [M⁻¹ s⁻¹] | IC50 (human C5aR [2]) [nM] | binding result [3] | Ka [4] [M⁻¹] | Kd [4] [nM] | koff [4] [s⁻¹] | kon [4] [M⁻¹ s⁻¹] | Ka [9] [M⁻¹] | Kd [9] [nM] | koff [9] [s⁻¹] | kon [9] [M⁻¹ s⁻¹] | further results
1 | MAb 7H3 (antibody, V domains shown, Mouse monoclonal antibody from a hybridoma (ECACC 06081802); also called 7H3-N9) VH: EVKLEESGGGLVQPGGSMKLSCVASGFTFSDAWMDWVRQSPEKGLEWVAGIRNRANNHATYYVASVKGRFTVSRDDSKSSVYLQMNSLRAEDAGIYYCTRGDGYFFDYWGQGTTLTVSS VL: DVVLTQTPLSLSVSLGDQASISCRSGQSLVHSNGNTYLHWYLQKPGQSSKLLIYKVSNRLSGVPDRFSGSGSGTDFTLKISRVEAEDLGVYFCSQTTHVPPTFGGGTKLEIK | 5.97e+07 | 16.7 | 0.00995 | 595000 | 0.275 | binds |  |  |  |  |  |  |  |  | 
2 | MAb 8G7 (antibody, V domains shown, Mouse monoclonal antibody from a hybridoma (ECACC 06081803); also called 8G7-M6) VH: DIQLQESGPGLVKPSQSLSLTCSVTGYSITSGHYWNWIRQLPGNKMEWMGHISNDGSNRYNPSLKNRISITRDTSKNQFFLKLNSVTTEDTATYYCALFYFAYASFAYWGQGTLVTVSA VL: DVVMTQTPLSLPVSLGDQASISCRSSQSLLHSNGNTYLHWYLQKPGQSPKLLIYKVSTRFSGVPDRFSGSGSGADFTLQISRVEAEDLGVYLCSQSTHVPPTFGAGTKLVLT | 6.3e+08 | 1.6 | 0.0059 | 3.7e+06 | 0.214 | binds |  |  |  |  |  |  |  |  | 
3 | MAb 7F3 (antibody, V domains shown) VH: QVQLQQSGPELVKPGASVKISCKASGYAFSNSWMNWVKQRPGKGLEWIGRIYPGDGDTKYNGKFKGKATLTADKSSSTAYMQLSSLTSEDSAVYFCARFLLISTVTAVDYWGQGTTLTVSS VL: DVVMTQSPLSLPVSLGNQASISCRSSQSLVHSNGNTYLHWYLQKPGQSPKLLIYKVSNRFSGVPDRFSGSGSGTDFSLKISRVEAEDLGVYFCSQSTLVPLTFGAGTKLELK | 1.4e+09 | 0.7 | 0.00045 | 640000 |  |  | 8.1e+08 | 1.2 | 0.00035 | 290000 | 5.4e+08 | 1.8 | 0.00038 | 210000 | Ka [5]: 7.19e+08 M⁻¹; Kd [5]: 1.39 nM; koff [5]: 0.000462 s⁻¹; kon [5]: 332000 M⁻¹ s⁻¹; IC50 (human C5aR [6]): 0.503 nM; EC50 (human C5aR [7]): 0.48 nM; Ka [8]: 4.79e+08 M⁻¹; Kd [8]: 2.09 nM; koff [8]: 0.000598 s⁻¹; kon [8]: 286000 M⁻¹ s⁻¹
4 | MAb 3C5 (antibody, V domains shown) VH: DVQLQESGPGLVKPSQSLSLTCSVTGYSITSGNYWNWIRQFPGKKLEWMGHISYDGNNKYNPSLKNRISITRDTSKNQFFLRLNSVTAEDTAAYYCALFYFDYASFTYWGQGTLVTVSA VL: DVVMTQTPLSLPVSLGDQASISCRSSQSLVHSNGNTYLHWYLRKPGQSPKLLIYKVSNRFSGVPDRFSGSGSGTDFTLKISRVEAEDLGVYFCSQSTHVPPTFGAGTKLELK | 2.1e+09 | 0.48 | 0.0016 | 3.3e+06 |  |  | 2.2e+09 | 0.45 | 0.0007 | 1.5e+06 | 1.3e+09 | 0.76 | 0.00052 | 680000 | EC50 (human C5aR [10]): 0.021 nM; IC50 (human C5aR [11]): 0.171 nM; fold improved affinity over 7F3 [12]: ~1.5 fold; Ka [13]: 7.16e+08 M⁻¹; Kd [13]: 1.4 nM; koff [13]: 0.00144 s⁻¹; kon [13]: 1.03e+06 M⁻¹ s⁻¹; Ka [14]: 9.6e+08 M⁻¹; Kd [14]: 1.04 nM; koff [14]: 0.00111 s⁻¹; kon [14]: 1.06e+06 M⁻¹ s⁻¹
